From patent publication US20140289906A1, “Compositions Having Dicamba Decarboxylase Activity and Methods of Use” (priority 2013, published 2014)
Entries after “also recorded” stand apart in the source; their conditions may differ.

B1: 109 (protein)
chain: MAQGKVALEEHFAIPETLQDSAGFVPGDYWKELQHRLLDIQDTRLKLMDAHGIETMILSLNAPAVQAIPDRRKAIEIARRANDVLAEECAKRPDRFLAFAALPLQDPDAATEELQRCVNDLGFVGALVNGFSQEGDGQTPLYYDLPQYRPFWGEVEKLDVPFYLHPRNPLPQDSRIYDGHPWLLGPTWAFAQETAVHALRLMASGLFDEHPRLNIILGHMGEGLPYMMWRIDHRVAWVKLPPRYPAKRRFMDYFNENFHITTSGNFRTQTLIDAILEIGADRILFSTDWPFENIDHASDWFNATSIAEADRVKIGRTNARRLFKLDGA
modifications: Dicamba decarboxylase variant clone DC.4.032
B2: G327Q: point mutation of SEQ ID NO:109 (protein)
chain: MAQGKVALEEHFAIPETLQDSAGFVPGDYWKELQHRLLDIQDTRLKLMDAHGIETMILSLNAPAVQAIPDRRKAIEIARRANDVLAEECAKRPDRFLAFAALPLQDPDAATEELQRCVNDLGFVGALVNGFSQEGDGQTPLYYDLPQYRPFWGEVEKLDVPFYLHPRNPLPQDSRIYDGHPWLLGPTWAFAQETAVHALRLMASGLFDEHPRLNIILGHMGEGLPYMMWRIDHRVAWVKLPPRYPAKRRFMDYFNENFHITTSGNFRTQTLIDAILEIGADRILFSTDWPFENIDHASDWFNATSIAEADRVKIGRTNARRLFKLDQA
modifications: Dicamba decarboxylase variant clone DC.4.032
B3: 112 (protein)
chain: MAQGKVALEEHFAIPETLQDSAGFVPGDYWKELVHRLLDIQDTRLKLMDAHGIETMILSLNAPAVQAIPDRRKAIEIARRANDVLAEECAKRPDRFLAFAALPLQDPDAATEELQRCVNDLGFVGALVNGFSQEGDGQTPLYYDLPQYRPFWGEVEKLDVPFYLHPRNPLPQDSRIYDGHPWLLGPTWAFAQETAVHALRLMASGLFDEHPRLNIILGHMGEGLPYMMWRIDHRVAWVKLPPRYPAKRRFMDYFNENFHITTSGNFRTQTLIDAILEIGADRILFSTDWPFENIDHASDWFNATSIAEADRVKIGRTNARRLFKLDGA
modifications: Dicamba decarboxylase variant clone DC.4.113
B4: 113 (protein)
chain: MAQGKVALEEHFAIPETLQDSAGFVPGDYLKELFHRLLDIQDTRLKLMDAHGIETMILSLNAPAVQAIPDRRKAIEIARRANDVLAEECAKRPDRFLAFAALPLQDPDAATEELQRCVNDLGFVGALVNGFSQEGDGQTPLYYDLPQYRPFWGEVEKLDVPFYLHPRNPLPQDSRIYDGHPWLLGPTWAFAQETAVHALRLMASGLFDEHPRLNIILGHMGEGLPYMMWRIDHRVAWVKLPPRYPAKRRFMDYFNENFHITTSGNFRTQTLIDAILEIGADRILFSTDWPFENIDHASDWFNATSIAEADRVKIGRTNARRLFKLDGA
modifications: Dicamba decarboxylase variant clone DC.4.114
B5: 111 (protein)
chain: MAQGKVALEEHFAIPETLQDSMGFVPGDYWKELMHRLLDIQDTRLKLMDAHGIETMILSLNAPAVQAIPDRRKAIEIARRANDVLAEECAKRPDRFLAFAALPLQDPDAATEELQRCVNDLGFVGALVNGFSQEGDGQTPLYYDLPQYRPFWGEVEKLDVPFYLHPRNPLPQDSRIYDGHPWLLGPTWAFAQETAVHALRLMASGLFDEHPRLNIILGHMGEGLPYMMWRIDHRMAWIKLPPRYPAKRRFMDYFNENFHITTSGNFRTQTLIDAILEIGADRILFSTDWPFENIDHASDWFNATSIAEADRVKIGRTNARRLFKLDGA
modifications: Dicamba decarboxylase variant clone DC.4.112
B6: 110 (protein)
chain: MAQGKVALEEHFAIPETLQDSMGFVPGDYWKELMHRLLDIQDTRLKLMDAHGIETMILSLNAPAVQAIPDRRKAIEIARRANDVLAEECAKRPDRFLAFAALPLQDPDAATEELQRCVNDLGFVGALVNGFSQEGDGQTPLYYDLPQYRPFWGEVEKLDVPFYLHPRNPLPQDSRIYDGHPWLLGPTWAFAQETAVHALRLMASGLFDEHPRLNIILGHMGEGLPYMMWRIDHRMAWVKLPPRYPAKRRFMDYFNENFHITTSGNFRTQTLIDAILEIGADRILFSTDWPFENIDHASDWFNATSIAEADRVKIGRTNARRLFKLDGA
modifications: Dicamba decarboxylase variant clone DC.4.111
B7: 116 (protein)
chain: MAQGKVALEEHFAIPETLQDAAGFVPGDYWKELQHRLLDIQDRRVRLMDEHGIETMILSLNAPAVQAIADSTRANETARRANDFLAEQVAKQPTRFRGFAALPMQDPELAARELERCVKELGFVGALVNGFSQDNRSAVPLYYDMAQYWPFWETVQALDVPFYLHPRNPLPSDARIYDGHAWLLGPTWAFGQETAVHALRLMGSGLFDKYPALKIILGHMGEGLPYSMWRIDHRNAWIKTTPKYPAKRKIVDYFNENFYLTTSGNFRTQTLIDAILEIGADRILFSTDWPFENIDHAADWFENTSISEADRKKIGWGNAQNLFKLNR
modifications: Dicamba decarboxylase variant clone DC.30.007
B8: 115 (protein)
chain: MAQGKVALEEHFAIPDTLTTYTTSGDYEKELKHRLLDIQDTRLKLMDAHGIETMILSLNAPGVQAIPDRRKAIEIARRANDVLAEECAKRPDRFLAFAALPLQDPDAATEELQRCVNDLGFVGALVNGFSQEGDGQTPLYYDLPQYRPFWGEVEKLDVPFYLHPRNPLPQDSRIYDGHPWLLGPTWAFAQETAVHALRLMASGLFDEHPRLNIILGHMGEGLPYMMWRIDHRNAWVKTPPRYPAKRRFMDYFNENFHITTSGNFRTQTLIDAILEIGADRILFSTDWPFENIDHASDWFNATSIAEADRVKIGRTNARRLFKLDGA
modifications: Dicamba decarboxylase variant clone DC.4.161

What was measured:
[1] = 14C assay: 14CO2 capture from [14C]-carboxyl-labeled dicamba with purified protein; type: biochemical
[2] = LC-MS/MS detection of 4-chloro-3-methoxy phenol; type: biochemical; conditions: purified protein, dicamba
Protocol: The decarboxylated and chloro hydrolyzed product, 4-chloro-3-methoxy phenol (FIG. 1D), is measured using a LC-MS/MS analytical procedure. […] 10 ul is removed from the reaction mixture and mixed with 90 ul pre-chilled methanol followed by centrifugation at 14,000 rpm for 15 min at 4° C. 10 ul of the supernatant is then transferred into 170 ul ddH2O to achieve 5% methanol solution for injection. 50 ul of the prepared sample is injected into a 4000 Q Trap LC-MS/MS system for sample analysis. LC-MS/MS parameters are: Mobile Phase A, 2 mM ammonium acetate in water; Mobile Phase B, 2 mM ammonium acetate in methanol; Column, Aquasil, 100×2.1 mm, 3 μm, C18 column; Flow Rate, 0.6 ml/min. The MS/MS fragment 157/142 which is common to 4-chloro-3-methoxy phenol, 2-chloro-5-methoxy phenol, and 3-chloro-5-methoxy phenol is monitored at a retention time of 2.88 min.

[3] = GC/MS detection of 2,5-dichloro phenol (2,5-DCP); kinetic determination; type: biochemical; conditions: purified protein, dicamba
Protocol: The decarboxylated and demethylated product of dicamba, 2,5-dichloro phenol or 2,5-DCP (FIG. 1E) is measured using a GC/MS analytical procedure with either liquid injection after liquid/liquid extraction using toluene as the extraction solvent or gas injection using head space method. The head space sample analysis is carried out on an Agilent GC/MS system with a 6890A GC, a 5973N MSD and a CTC CombiPAL auto-sampler or with a 7890A GC, a 5975C MSD and an Agilent GC Sampler 80 auto-sampler with Phenomenex ZB-MultiResidue-1 column (30 m length, 0.25 mm diameter, 0.25 um film) or equivalent. GC/MS parameters are: GC inlet temperature, 200° C.; Carry gas, helium in constant flow mode (1.2 mL/min); Oven temperature program, 70° C. for 1 min and then ramp to 275° C. at 40° C./min. […] The reaction vial is transferred to a agitator for incubation at 90° C. for 4 min at 500 rpm. With a syringe preheated at 110° C., 1000 uL of head space is injected with sample fill speed at 100 uL/sec. A 2-mm diameter liner is used in sample inlet. The MS data acquisition is done in SIM (selected ion monitoring) mode. The positive ion at M/Z 162 for the molecular ion of 2,-5-DCP is monitored at retention time of 4.06 min. Solvent delay for MS acquisition is set at 3 min. GC/MS parameters for liquid sample analysis are the same as those for head space analysis, except that the volume of liquid injection is 1 uL.

[4] = Dicamba decarboxylation activity of computationally designed protein variants and parents (Tables 4, 5); conditions: for dicamba decarboxylase activity (statement in the description): native proteins and designed variants, assay not specified
[5] = 14C assay: 14CO2 capture from [14C]-carboxyl-labeled dicamba with IPTG-induced recombinant E. coli cells; conditions: dicamba decarboxylation activity
[6] = Saturation mutagenesis of SEQ ID NO:109: dicamba decarboxylation activity of point mutants (Table 7)

Molecule | CO2 product detected [1] | 4-chloro-3-methoxy phenol product detected [2] | 2,5-DCP product detected [3] | dicamba decarboxylase activity (statement in the description) [4] | Enzymatic Detection level [5] | Average Activity (Fold of SEQ ID NO: 109) ([6]; dicamba decarboxylation activity of point mutants of SEQ ID NO: 109 from NNK saturation mutagenesis, 0.7-fold used as cut-off) | Average Activity (Fold of SEQ ID NO: 109) ([6]; point mutant of SEQ ID NO:109, dicamba decarboxylation activity relative to the unchanged template) | Percent Activity Improvement Over Parent (%) ([4]; parent (SEQ ID NO: 1 or SEQ ID NO: 41) = 100)
B1 | detected | detected | detected | more active than their parent sequence; also recorded: displays an increase in dicamba decarboxylase activity | High | – | – | –
B2 | – | – | – | – | – | 2.8 Fold of SEQ ID NO: 109 | 2.8 Fold of SEQ ID NO: 109 | –
B3 | detected | detected | detected | displays an increase in dicamba decarboxylase activity | High | – | – | –
B4 | detected | detected | detected | displays an increase in dicamba decarboxylase activity | High | – | – | –
B5 | detected | detected | detected | displays an increase in dicamba decarboxylase activity | High | – | – | –
B6 | detected | detected | detected | displays an increase in dicamba decarboxylase activity | High | – | – | –
B7 | detected | detected | detected | improved dicamba decarboxylase activity; also recorded: displays an increase in dicamba decarboxylase activity | High | – | – | 220
B8 | detected | detected | detected | displays an increase in dicamba decarboxylase activity | High | – | – | –
